# Laboratory results as given in publication doi:10.1101/2022.02.28.482286 (bioRxiv, 2022).
# T1: Pol III subunit C128 (S. cerevisiae, UniProt P22276 1-1149)
# T1 sequence (looked up): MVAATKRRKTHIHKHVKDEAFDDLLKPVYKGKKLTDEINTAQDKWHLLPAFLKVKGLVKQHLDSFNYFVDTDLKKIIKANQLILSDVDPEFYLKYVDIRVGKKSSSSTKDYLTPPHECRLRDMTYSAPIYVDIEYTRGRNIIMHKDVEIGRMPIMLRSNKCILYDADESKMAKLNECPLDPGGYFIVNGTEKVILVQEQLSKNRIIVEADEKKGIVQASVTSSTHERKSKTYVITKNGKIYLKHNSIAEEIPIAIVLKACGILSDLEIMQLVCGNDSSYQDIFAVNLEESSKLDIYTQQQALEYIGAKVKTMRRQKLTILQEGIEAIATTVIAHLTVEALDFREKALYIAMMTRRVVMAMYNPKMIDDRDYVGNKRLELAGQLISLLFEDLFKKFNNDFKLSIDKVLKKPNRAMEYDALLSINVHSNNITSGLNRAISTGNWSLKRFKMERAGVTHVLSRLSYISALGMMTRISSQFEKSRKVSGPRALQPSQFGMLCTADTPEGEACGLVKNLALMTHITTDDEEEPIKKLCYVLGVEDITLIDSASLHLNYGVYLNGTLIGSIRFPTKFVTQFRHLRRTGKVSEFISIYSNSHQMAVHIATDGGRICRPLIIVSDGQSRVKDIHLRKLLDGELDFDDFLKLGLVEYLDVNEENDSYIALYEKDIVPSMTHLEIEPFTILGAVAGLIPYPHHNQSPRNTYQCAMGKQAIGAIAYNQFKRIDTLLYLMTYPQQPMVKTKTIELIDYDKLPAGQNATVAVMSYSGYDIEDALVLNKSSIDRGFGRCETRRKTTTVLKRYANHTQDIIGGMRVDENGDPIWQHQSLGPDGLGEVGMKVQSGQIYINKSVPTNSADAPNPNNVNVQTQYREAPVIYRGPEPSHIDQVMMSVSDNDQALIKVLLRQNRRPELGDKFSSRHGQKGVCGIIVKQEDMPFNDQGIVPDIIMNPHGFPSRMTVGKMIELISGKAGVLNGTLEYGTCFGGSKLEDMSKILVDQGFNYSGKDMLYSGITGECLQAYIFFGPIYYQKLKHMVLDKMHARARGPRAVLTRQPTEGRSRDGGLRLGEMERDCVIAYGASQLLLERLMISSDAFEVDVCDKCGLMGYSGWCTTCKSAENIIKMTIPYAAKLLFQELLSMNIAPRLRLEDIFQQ
# T2: Pol III subunit C53 (S. cerevisiae, UniProt P25441 1-422)
# T2 sequence (looked up): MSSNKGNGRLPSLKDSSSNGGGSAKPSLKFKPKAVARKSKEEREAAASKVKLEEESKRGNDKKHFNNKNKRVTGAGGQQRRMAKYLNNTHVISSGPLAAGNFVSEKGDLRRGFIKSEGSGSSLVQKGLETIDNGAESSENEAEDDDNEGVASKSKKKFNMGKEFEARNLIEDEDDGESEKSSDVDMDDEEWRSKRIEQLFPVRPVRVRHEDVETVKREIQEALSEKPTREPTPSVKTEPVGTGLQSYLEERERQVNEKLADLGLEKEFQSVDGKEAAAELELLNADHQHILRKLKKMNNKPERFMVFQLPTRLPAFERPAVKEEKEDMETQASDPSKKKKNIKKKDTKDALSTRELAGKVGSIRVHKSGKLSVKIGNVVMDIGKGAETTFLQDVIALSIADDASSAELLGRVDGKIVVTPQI
# T3: Pol III subunit C160 (S. cerevisiae, UniProt P04051 1-1460)
# T3 sequence (looked up): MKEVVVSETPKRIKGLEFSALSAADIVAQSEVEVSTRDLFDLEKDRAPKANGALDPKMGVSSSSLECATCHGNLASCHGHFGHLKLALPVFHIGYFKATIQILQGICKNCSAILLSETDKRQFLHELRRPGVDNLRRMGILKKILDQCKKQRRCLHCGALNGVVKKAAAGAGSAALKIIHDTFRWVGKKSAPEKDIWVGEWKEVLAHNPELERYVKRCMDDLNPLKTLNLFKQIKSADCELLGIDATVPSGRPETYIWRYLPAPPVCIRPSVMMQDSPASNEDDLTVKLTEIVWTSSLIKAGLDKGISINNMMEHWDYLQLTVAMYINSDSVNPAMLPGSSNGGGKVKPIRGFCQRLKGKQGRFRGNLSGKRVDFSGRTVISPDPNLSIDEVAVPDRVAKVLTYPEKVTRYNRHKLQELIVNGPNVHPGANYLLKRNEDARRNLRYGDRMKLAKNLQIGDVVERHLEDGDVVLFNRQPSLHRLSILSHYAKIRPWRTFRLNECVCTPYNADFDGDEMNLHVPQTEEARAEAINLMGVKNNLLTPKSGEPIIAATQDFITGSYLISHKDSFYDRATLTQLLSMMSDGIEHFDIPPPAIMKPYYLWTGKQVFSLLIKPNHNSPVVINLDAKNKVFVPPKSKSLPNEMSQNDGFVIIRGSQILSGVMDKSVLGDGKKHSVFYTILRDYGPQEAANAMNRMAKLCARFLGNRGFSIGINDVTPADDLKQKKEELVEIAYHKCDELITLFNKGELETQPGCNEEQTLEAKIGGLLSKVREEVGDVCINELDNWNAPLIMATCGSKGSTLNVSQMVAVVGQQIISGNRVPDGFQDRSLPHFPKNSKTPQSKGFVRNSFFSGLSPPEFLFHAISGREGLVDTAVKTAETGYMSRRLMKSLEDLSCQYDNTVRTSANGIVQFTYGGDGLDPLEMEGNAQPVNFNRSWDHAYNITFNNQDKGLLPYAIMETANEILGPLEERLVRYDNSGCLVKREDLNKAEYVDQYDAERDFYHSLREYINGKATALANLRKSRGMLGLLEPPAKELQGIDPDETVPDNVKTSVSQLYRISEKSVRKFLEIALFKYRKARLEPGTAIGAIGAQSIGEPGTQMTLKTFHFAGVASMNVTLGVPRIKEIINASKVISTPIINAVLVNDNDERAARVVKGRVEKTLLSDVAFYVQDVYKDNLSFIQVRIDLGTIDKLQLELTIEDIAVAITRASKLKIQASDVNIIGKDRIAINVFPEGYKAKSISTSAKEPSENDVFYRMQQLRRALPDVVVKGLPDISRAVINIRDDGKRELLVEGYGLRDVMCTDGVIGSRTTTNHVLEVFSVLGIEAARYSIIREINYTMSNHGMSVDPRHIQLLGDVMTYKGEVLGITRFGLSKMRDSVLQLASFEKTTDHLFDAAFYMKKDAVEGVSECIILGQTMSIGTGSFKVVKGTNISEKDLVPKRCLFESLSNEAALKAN
# T4: subunit ABC27 (S. cerevisiae, UniProt P20434 1-215)
# T4 sequence (looked up): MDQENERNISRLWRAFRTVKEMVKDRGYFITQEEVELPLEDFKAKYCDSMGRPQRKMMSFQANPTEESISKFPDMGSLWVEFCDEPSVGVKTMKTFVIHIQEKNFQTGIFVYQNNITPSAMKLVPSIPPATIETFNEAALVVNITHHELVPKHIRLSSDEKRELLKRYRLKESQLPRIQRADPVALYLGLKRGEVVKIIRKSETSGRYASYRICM
# B1: C53-C37 heterodimer (complex, S. cerevisiae)
# chain 1: T2 sequence (looked up)
# chain 2: MSIDNKLFVTEEDEEDRTQDRADVEDESNDIDMIADENGTNSAIANEQEEKSEEVKAEDDTGEEEEDDPVIEEFPLKISGEEESLHVFQYANRPRLVGRKPAEHPFISAARYKPKSHLWEIDIPLDEQAFYNKDKAESEWNGVNVQTLKGVGVENNGQYAAFVKDMQVYLVPIERVAQLKPFFKYIDDANVTRKQEDARRNPNPSSQRAQVVTMSVKSVNDPSQNRLTGSLLAHKVADEEANIELTWAEGTFEQFKDTIVKEAEDKTLVALEKQEDYIDNLV
# B2: Pol III subunit C37 (natural protein, S. cerevisiae, UniProt P36121 1-282, looked up)
# chain: B1 chain 2
# B3: Pol III subunit C11 (natural protein, S. cerevisiae, UniProt Q04307 1-110, looked up)
# chain: MLSFCPSCNNMLLITSGDSGVYTLACRSCPYEFPIEGIEIYDRKKLPRKEVDDVLGGGWDNVDQTKTQCPNYDTCGGESAYFFQLQIRSADEPMTTFYKCVNCGHRWKEN
# Columns and labels:
# Assay in all cases: cryo-EM structure
# Pol III subunit C128 = target: T1, Pol III subunit C128
# Pol III subunit C53 = target: T2, Pol III subunit C53
# Pol III subunit C160 = target: T3, Pol III subunit C160
# subunit ABC27 = target: T4, subunit ABC27
Binder,binding result (Pol III subunit C128),binding result (Pol III subunit C53),binding result (Pol III subunit C160),binding result (subunit ABC27)
B1,binds,,,
B2,binds,binds,,
B3,,,binds,binds
